For experiment [1], the target named is T1, pentameric C-reactive protein (human), P02741.
T1 chain: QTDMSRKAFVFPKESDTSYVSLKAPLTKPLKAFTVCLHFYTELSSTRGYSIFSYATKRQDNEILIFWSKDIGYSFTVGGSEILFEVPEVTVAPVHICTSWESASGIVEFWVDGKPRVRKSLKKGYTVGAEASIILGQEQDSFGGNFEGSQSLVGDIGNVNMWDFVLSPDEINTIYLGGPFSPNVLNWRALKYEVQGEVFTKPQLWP
Briefly: native gel or EMSA; BN-PAGE (4-16% Bis-Tris) of pCRP (40 ug/ml) pelleted with liposomes or microvesicles after 1 h at 37 °C in 25 mM Tris-HCl pH 7.4, 150 mM NaCl, 2 mM CaCl2; pCRP and mCRP controls beside it. The following applies: remark: other sources report otherwise.

The target in experiment [2] is T2, tissue-deposited CRP (human (endogenous in burn wound, skeletal muscle and carotid plaque tissue)), P02741.
T2 chain: T1 chain
Briefly: native gel or EMSA; SDS-PAGE with 1/20 of the usual SDS content (8-13% gels), burn wound lysates loaded in native buffer; control pCRP and mCRP beside them; Western blot with anti-CRP-8. The following applies: remark: other sources report otherwise. (In general: In EMSA bound probe runs differently from free probe, usually more slowly.)

B1: pentameric C-reactive protein, P02741 19-224 (natural protein)
chain: T1 chain
By stoichiometry N is commonly meant a count of units in the complex or per binding partner. As to B1, in experiment [1], the stoichiometry N was 5.

B2: tissue-deposited CRP, P02741 19-224 (natural protein)
chain: T1 chain
In the case of B2, the stoichiometry N in experiment [2] worked out at 5.

The values above are taken from publication PMC5264208.
